Measurements as given in IntAct's records for PubMed 29477555.

B1: Serine protease HTRA3 (Homo sapiens), P83110-2 (parent)
chain: MQARALLLAALAALALAREPPAAPCPARCDVSRCPSPRCPGGYVPDLCNCCLVCAASEGEPCGGPLDSPCGESLECVRGLCRCRWSHAVCGTDGHTYANVCALQAASRRALQLSGTPVRQLQKGACPLGLHQLSSPRYKFNFIADVVEKIAPAVVHIELFLRHPLFGRNVPLSSGSGFIMSEAGLIITNAHVVSSNSAAPGRQQLKVQLQNGDSYEATIKDIDKKSDIATIKIHPKKKLPVLLLGHSADLRPGEFVVAIGSPFALQNTVTTGIVSTAQREGRELGLRDSDMDYIQTDAIINYGNSGGPLVNLDGEVIGINTLKVTAGISFAIPSDRITRFLTEFQDKQIKAPSLAVH
B2: Serine protease HTRA3 (Homo sapiens), P83110-1 (parent)
chain: MQARALLLAALAALALAREPPAAPCPARCDVSRCPSPRCPGGYVPDLCNCCLVCAASEGEPCGGPLDSPCGESLECVRGLCRCRWSHAVCGTDGHTYANVCALQAASRRALQLSGTPVRQLQKGACPLGLHQLSSPRYKFNFIADVVEKIAPAVVHIELFLRHPLFGRNVPLSSGSGFIMSEAGLIITNAHVVSSNSAAPGRQQLKVQLQNGDSYEATIKDIDKKSDIATIKIHPKKKLPVLLLGHSADLRPGEFVVAIGSPFALQNTVTTGIVSTAQREGRELGLRDSDMDYIQTDAIINYGNSGGPLVNLDGEVIGINTLKVTAGISFAIPSDRITRFLTEFQDKQIKDWKKRFIGIRMRTITPSLVDELKASNPDFPEVSSGIYVQEVAPNSPSQRGGIQDGDIIVKVNGRPLVDSSELQEAVLTESPLLLEVRRGNDDLLFSIAPEVVM

Variants of: B1
Details: with tcpa_human TCP1, P17987
Target sequence in this assay (P17987 whole entry): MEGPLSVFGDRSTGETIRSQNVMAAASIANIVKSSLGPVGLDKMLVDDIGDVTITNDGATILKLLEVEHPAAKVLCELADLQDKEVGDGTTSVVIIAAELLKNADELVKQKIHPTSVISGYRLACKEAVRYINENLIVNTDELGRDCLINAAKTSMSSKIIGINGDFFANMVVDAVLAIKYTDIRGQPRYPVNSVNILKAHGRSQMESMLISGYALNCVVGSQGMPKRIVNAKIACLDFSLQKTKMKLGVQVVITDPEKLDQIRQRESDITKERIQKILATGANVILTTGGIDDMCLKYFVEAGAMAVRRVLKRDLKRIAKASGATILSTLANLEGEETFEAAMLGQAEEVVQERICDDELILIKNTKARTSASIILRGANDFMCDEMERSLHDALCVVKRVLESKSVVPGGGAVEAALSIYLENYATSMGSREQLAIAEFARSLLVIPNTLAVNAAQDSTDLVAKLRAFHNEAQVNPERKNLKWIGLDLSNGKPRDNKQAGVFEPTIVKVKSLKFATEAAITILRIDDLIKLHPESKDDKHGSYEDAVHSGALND

Row | effect of a mutation on the interaction | Variant
1 | decreasing interaction strength | MQARALLLAALAALALAREPPAAPCPARCDVSRCPSPRCPGGYVPDLCNCCLVCAASEGEPCGGPLDSPCGESLECVRGLCRCRWSHAVCGTDGHTYANVCALQAASRRALQLSGTPVRQLQKGACPLGLHQLSSPRYKFNFIADVVEKIAPAVVHIELFLRHPLFGRNVPLSSGSGFIMSEAGLIITNAHVVSSNSAAPGRQQLKVQLQNGDSYEATIKDIDKKSDIATIKIHPKKKLPVLLLGHSADLRPGEFVVAIGSPFALQNTVTTGIVSTAQREGRELGLRDSDMDYIQTDAIINYGNAGGPLVNLDGEVIGINTLKVTAGISFAIPSDRITRFLTEFQDKQIKAPSLAVH [S305A]

Variants of: B2
Details: with tcpa_human TCP1, P17987
Target sequence in this assay (P17987 whole entry): as the sequence (P17987 whole entry) above

Row | effect of a mutation on the interaction | Variant
2 | decreasing interaction strength | MQARALLLAALAALALAREPPAAPCPARCDVSRCPSPRCPGGYVPDLCNCCLVCAASEGEPCGGPLDSPCGESLECVRGLCRCRWSHAVCGTDGHTYANVCALQAASRRALQLSGTPVRQLQKGACPLGLHQLSSPRYKFNFIADVVEKIAPAVVHIELFLRHPLFGRNVPLSSGSGFIMSEAGLIITNAHVVSSNSAAPGRQQLKVQLQNGDSYEATIKDIDKKSDIATIKIHPKKKLPVLLLGHSADLRPGEFVVAIGSPFALQNTVTTGIVSTAQREGRELGLRDSDMDYIQTDAIINYGNAGGPLVNLDGEVIGINTLKVTAGISFAIPSDRITRFLTEFQDKQIKDWKKRFIGIRMRTITPSLVDELKASNPDFPEVSSGIYVQEVAPNSPSQRGGIQDGDIIVKVNGRPLVDSSELQEAVLTESPLLLEVRRGNDDLLFSIAPEVVM [S305A]
